Measured values published in patent US20120244577A1 (Zymeworks, published 2012).

Molecular target: the molecule itself
Assay: co-expression in CHO-3E7, gel analysis (FIG. 6)
Description: High level and high-throughput recombinant protein production by transient transfection of suspension-growing […] CHO-3E7 was performed. See Table 3 for construct boundaries of the two scaffolds described here: Albumin based heteromultimer 1 (ABH1) and Albumin based heteromultimer 2 (ABH2). Albumin based heteromultimer 2 comprises one disulfide bond between the two transporter polypeptides, while Albumin based heteromultimer 1 is formed entirely by non-covalent interactions. FIG. 6A provides SDS-PAGE (non-reducing) gel analysis of the two heteromultimer constructs (ABH1 and ABH2), after co-expression (different DNA transfection ratios are shown). WT full-length HSA is shown as control. As expected, ABH2 retains the disulfide linkage in non-reducing SDS-PAGE, with a MW roughly double the non-disulfide linked ABH1. FIG. 6B provides Native gel analysis of the two Albumin based heteromultimer constructs (ABH1 and ABH2), after co-expression (1:1 DNA level). WT full-length HSA is shown as control. […]
WT-HSA and the two Albumin based heteromultimers (ABH1 and ABH2) were expressed in CHO-3E7 cell line grown in suspension in FreeStyle F17 medium (Invitrogen) supplemented with 0.1% w/v pluronic and 4 mM glutamine. […] At 24-48 hours, GFP positive cells should be between 30-60% as determined by flow cytometry.

Protein | binding result
Albumin based Transporter polypeptide 1-Ver 2 (other, First chain of ABH2; also called F1; ABH2 segment 1:337) DAHKSEVAHRFKDLGEENFKALVLIAFAQYLQQCPFEDHVKLVNEVTEFAKTCVADESAENCDKSLHTLFGDKLCTVATLRETYGEMADCCAKQEPERNECFLQHKDDNPNLPRLVRPEVDVMCTAFHDNEETFLKKYLYEIARRHPYFYAPELLFFAKRYKAAFTECCQAADKAACLLPKLDELRDEGKASSAKQRLKCASLQKFGERAFKAWAVARLSQRFPKAEFAEVSKLVTDLTKVHTECCHGDLLECADDRADLAKYICENQDSISSKLKECCEKPLLEKSHCIAEVENDEMPADLPSLAADFVESKDVCKNYAEAKDVFLGMFLYEYARA | no binding
Albumin based Transporter polypeptide 1-Ver 1 (other, also called ABH1 segment 1:293) DAHKSEVAHRFKDLGEENFKALVLIAFAQYLQQCPFEDHVKLVNEVTEFAKTCVADESAENCDKSLHTLFGDKLCTVATLRETYGEMADCCAKQEPERNECFLQHKDDNPNLPRLVRPEVDVMCTAFHDNEETFLKKYLYEIARRHPYFYAPELLFFAKRYKAAFTECCQAADKAACLLPKLDELRDEGKASSAKQRLKCASLQKFGERAFKAWAVARLSQRFPKAEFAEVSKLVTDLTKVHTECCHGDLLECADDRADLAKYICENQDSISSKLKECCEKPLLEKSHCIAEV | no binding
